In patent US12383631:

Columns and labels:
[1] = target: native IL-18 wild-type (SEQ ID NO: 1) (human) (UniProt Q14116)
[2] = target: IL-18 polypeptide of SEQ ID NO: 31 (C38A, C76A, C127A) (human) (UniProt Q14116)
[3] = target: Composition D (LZM-009 conjugated to IL-18 polypeptide of SEQ ID NO: 31) (human) (UniProt Q14116)
[4] = target: Composition C (Trastuzumab/Herceptin conjugated to IL-18 polypeptide of SEQ ID NO: 30) (human)
[5] = target: Composition A (LZM-009 conjugated to IL-18 polypeptide of SEQ ID NO: 30) (human) (UniProt Q14116)
[6] = target: IL-18 polypeptide C157 (human) (UniProt Q14116); experiment: cell-based or functional assay
[7] = target: IL-18 polypeptide C149 (human) (UniProt Q14116); experiment: cell-based or functional assay
[8] = target: IL-18 polypeptide C144 (human) (UniProt Q14116); experiment: cell-based or functional assay
[9] = target: IL-18 polypeptide C165 (human) (UniProt Q14116); experiment: cell-based or functional assay
[10] = target: IL-18 polypeptide C145 (human) (UniProt Q14116); experiment: cell-based or functional assay
[11] = target: IL-18 polypeptide of SEQ ID NO: 55 (K53A, T63A, C38S, C68S, C76S, C127S, K70C) (human) (UniProt Q14116); experiment: cell-based or functional assay
[12] = target: IL-18 polypeptide C167 (human) (UniProt Q14116); experiment: cell-based or functional assay
[13] = target: IL-18 polypeptide C163 (human) (UniProt Q14116); experiment: cell-based or functional assay
[14] = target: IL-18 polypeptide C162 (human) (UniProt Q14116); experiment: cell-based or functional assay
[15] = target: IL-18 polypeptide of SEQ ID NO: 30 (E6K, V11I, C38A, K53A, T63A, C76A, C127A) (human) (UniProt Q14116); experiment: cell-based or functional assay
[16] = target: IL-18 polypeptide of SEQ ID NO: 31 (C38A, C76A, C127A) (human) (UniProt Q14116); experiment: cell-based or functional assay
[17] = target: IL-18 polypeptide C159 (human) (UniProt Q14116); experiment: cell-based or functional assay
[18] = target: IL-18 polypeptide C166 (human) (UniProt Q14116); experiment: cell-based or functional assay
[19] = target: IL-18 polypeptide of SEQ ID NO: 37 (S55A) (human) (UniProt Q14116); experiment: cell-based or functional assay
[20] = target: IL-18 polypeptide C151 (human) (UniProt Q14116); experiment: cell-based or functional assay
[21] = target: IL-18 polypeptide of SEQ ID NO: 57 (E6K, C38S, K53A) (human) (UniProt Q14116); experiment: cell-based or functional assay
[22] = target: IL-18 polypeptide of SEQ ID NO: 39 (E06K, K53A) (human) (UniProt Q14116); experiment: cell-based or functional assay
[23] = target: Composition D (LZM-009 conjugated to IL-18 polypeptide of SEQ ID NO: 31) (human) (UniProt Q14116); experiment: cell-based or functional assay
[24] = target: IL-18 polypeptide of SEQ ID NO: 4 (E6K, C38A, K53A, C68A, M86C) (human) (UniProt Q14116); experiment: cell-based or functional assay
[25] = target: IL-18 polypeptide of SEQ ID NO: 43 (E06K, K53A, S55A, Y01G) (human) (UniProt Q14116); experiment: cell-based or functional assay
[26] = target: IL-18 polypeptide of SEQ ID NO: 6 (E6K, V11I, C38A, K53A, T63A, C68A, C76A, D98C, C127A) (human) (UniProt Q14116); experiment: cell-based or functional assay
[27] = target: IL-18 polypeptide of SEQ ID NO: 51 (T63A) (human) (UniProt Q14116); experiment: cell-based or functional assay
[28] = target: IL-18 polypeptide of SEQ ID NO: 53 (K53A, T63A) (human) (UniProt Q14116); experiment: cell-based or functional assay
[29] = target: IL-18 polypeptide C164 (human) (UniProt Q14116); experiment: cell-based or functional assay
[30] = target: IL-18 polypeptide C148 (human) (UniProt Q14116); experiment: cell-based or functional assay
[31] = target: IL-18 polypeptide C156 (human) (UniProt Q14116); experiment: cell-based or functional assay
[32] = target: IL-18 polypeptide of SEQ ID NO: 52 (E06K, T63A) (human) (UniProt Q14116); experiment: cell-based or functional assay
[33] = target: IL-18 polypeptide of SEQ ID NO: 41 (K53A, S55A) (human) (UniProt Q14116); experiment: cell-based or functional assay
[34] = target: IL-18 polypeptide C161 (human) (UniProt Q14116); experiment: cell-based or functional assay
[35] = target: Composition A (LZM-009 conjugated to IL-18 polypeptide of SEQ ID NO: 30) (human) (UniProt Q14116); experiment: cell-based or functional assay
[36] = target: IL-18 polypeptide C146 (SEQ ID NO: 68) (human) (UniProt Q14116); experiment: cell-based or functional assay
[37] = target: IL-18 polypeptide of SEQ ID NO: 46 (E06K, K53A, S55A, M51G) (human) (UniProt Q14116); experiment: cell-based or functional assay
[38] = target: IL-18 polypeptide of SEQ ID NO: 47 (C38S, C68S, C76S, C127S) (human) (UniProt Q14116); experiment: cell-based or functional assay
[39] = target: IL-18 polypeptide of SEQ ID NO: 36 (K53A) (human) (UniProt Q14116); experiment: cell-based or functional assay
[40] = target: IL-18 polypeptide of SEQ ID NO: 60 (E6K, C38Q, K53A) (human) (UniProt Q14116); experiment: cell-based or functional assay

Substance: Fc fused human IL-18 binding protein isoform a (IL-18BPa; R&D systems, Cat #119-BP) (from UniProt O95998 31-194) (Fc fusion)
- IC50 (read off the curve), IFNg secretion of the stimulated NK92 cells (IFNg AlphaLISA signal) [1]: 1 nM
- IC50 (read off the curve), IFNg secretion of the stimulated NK92 cells (IFNg AlphaLISA signal) [2]: 0.3 nM
- IC50 (read off the curve), IFNg secretion of the stimulated NK92 cells (IFNg AlphaLISA signal) [3]: 0.1 nM
- IC50 (read off the curve), IFNg secretion of the stimulated NK92 cells (IFNg AlphaLISA signal) [4]: 10 nM
- IC50 (read off the curve), IFNg secretion of the stimulated NK92 cells (IFNg AlphaLISA signal) [5]: 8 nM
- IC50 of IL-18BP on IFNγ secretion, NK92 cells [6]: 6.08 nM
- IC50 of IL-18BP on IFNγ secretion, NK92 cells [7]: 1.17 nM
- IC50 of IL-18BP on IFNγ secretion, NK92 cells [8]: 7.52 nM
- IC50 of IL-18BP on IFNγ secretion, NK92 cells [9]: 0.885 nM
- IC50 of IL-18BP on IFNγ secretion, NK92 cells [10]: 10.2 nM
- IC50 of IL-18BP on IFNγ secretion, NK92 cells [11]: > 1000 nM
- IC50 of IL-18BP on IFNγ secretion, NK92 cells [12]: 0.809 nM
- IC50 of IL-18BP on IFNγ secretion, NK92 cells [13]: 0.823 nM
- IC50 of IL-18BP on IFNγ secretion, NK92 cells [14]: 7.29 nM
- IC50 of IL-18BPa on IFNγ secretion by NK92 cells [15]: 488 nM
- IC50 of IL-18BPa on IFNγ secretion by NK92 cells [16]: 0.282 nM
- IC50 of IL-18BP on IFNγ secretion, NK92 cells [17]: 1.81 nM
- IC50 of IL-18BP on IFNγ secretion, NK92 cells [18]: 0.44 nM
- IC50 of IL-18BP on IFNγ secretion, NK92 cells [19]: 4.46 nM
- IC50 of IL-18BP on IFNγ secretion, NK92 cells [20]: 3.62 nM
- IC50 of IL-18BP on IFNγ secretion, NK92 cells [21]: 146 nM
- IC50 of IL-18BP on IFNγ secretion, NK92 cells [22]: > 703 nM
- IC50 of IL-18BPa on IFNγ secretion by NK92 cells [23]: 0.098 nM
- IC50 of IL-18BP on IFNγ secretion, NK92 cells [24]: 396 nM
- IC50 of IL-18BP on IFNγ secretion, NK92 cells [25]: 27.8 nM
- IC50 of IL-18BP on IFNγ secretion, NK92 cells [26]: 5.85 nM
- IC50 of IL-18BP on IFNγ secretion, NK92 cells [27]: 0.239 nM
- IC50 of IL-18BP on IFNγ secretion, NK92 cells [28]: 18.2 nM
- IC50 of IL-18BP on IFNγ secretion, NK92 cells [29]: 0.456 nM
- IC50 of IL-18BP on IFNγ secretion, NK92 cells [30]: 5.05 nM
- IC50 of IL-18BP on IFNγ secretion, NK92 cells [31]: 0.681 nM
- IC50 of IL-18BP on IFNγ secretion, NK92 cells [32]: 47.1 nM
- IC50 of IL-18BP on IFNγ secretion, NK92 cells [33]: 37.3 nM
- IC50 of IL-18BP on IFNγ secretion, NK92 cells [34]: 1.07 nM
- IC50 of IL-18BPa on IFNγ secretion by NK92 cells [35]: 6.87 nM
- IC50 of IL-18BP on IFNγ secretion, NK92 cells [36]: 733 nM
- IC50 of IL-18BP on IFNγ secretion, NK92 cells [37]: 0.189 nM
- IC50 of IL-18BP on IFNγ secretion, NK92 cells [38]: 0.444 nM
- IC50 of IL-18BP on IFNγ secretion, NK92 cells [39]: 27.3 nM
- IC50 of IL-18BP on IFNγ secretion, NK92 cells [40]: 780 nM
